In publication doi:10.1101/2024.04.26.591257 (bioRxiv, 2024):

T1: WOX5-mV(N)/PLT3-mV(C) heterodimer (split mVenus donor) (Arabidopsis thaliana, UniProt Q8H1D2 1-182; Q52QU2 1-581)
T1 sequence (looked up) 1: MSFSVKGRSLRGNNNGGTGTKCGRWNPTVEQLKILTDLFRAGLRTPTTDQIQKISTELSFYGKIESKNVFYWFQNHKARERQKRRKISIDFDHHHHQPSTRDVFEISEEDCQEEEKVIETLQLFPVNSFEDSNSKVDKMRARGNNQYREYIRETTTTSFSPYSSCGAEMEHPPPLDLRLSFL
T1 sequence (looked up) 2: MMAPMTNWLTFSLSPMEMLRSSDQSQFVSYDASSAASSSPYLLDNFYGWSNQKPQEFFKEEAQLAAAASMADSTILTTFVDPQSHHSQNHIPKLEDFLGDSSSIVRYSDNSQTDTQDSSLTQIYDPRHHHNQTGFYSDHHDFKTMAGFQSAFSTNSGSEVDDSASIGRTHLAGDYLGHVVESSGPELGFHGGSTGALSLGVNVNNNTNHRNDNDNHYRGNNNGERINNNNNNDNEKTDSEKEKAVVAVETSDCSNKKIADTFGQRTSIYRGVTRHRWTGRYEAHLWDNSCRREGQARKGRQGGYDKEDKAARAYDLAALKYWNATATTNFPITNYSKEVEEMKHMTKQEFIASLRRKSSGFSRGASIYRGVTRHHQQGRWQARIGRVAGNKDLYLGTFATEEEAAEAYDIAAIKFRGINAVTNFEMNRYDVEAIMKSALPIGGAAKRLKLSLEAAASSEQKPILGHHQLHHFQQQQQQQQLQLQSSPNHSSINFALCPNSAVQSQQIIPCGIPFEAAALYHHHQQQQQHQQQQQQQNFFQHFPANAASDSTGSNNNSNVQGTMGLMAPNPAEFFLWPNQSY

T2: BRAVO-mV(N)/PLT3-mV(C) heterodimer (split mVenus donor) (Arabidopsis thaliana, UniProt Q6R053 1-323; Q52QU2 1-581)
T2 sequence (looked up) 1: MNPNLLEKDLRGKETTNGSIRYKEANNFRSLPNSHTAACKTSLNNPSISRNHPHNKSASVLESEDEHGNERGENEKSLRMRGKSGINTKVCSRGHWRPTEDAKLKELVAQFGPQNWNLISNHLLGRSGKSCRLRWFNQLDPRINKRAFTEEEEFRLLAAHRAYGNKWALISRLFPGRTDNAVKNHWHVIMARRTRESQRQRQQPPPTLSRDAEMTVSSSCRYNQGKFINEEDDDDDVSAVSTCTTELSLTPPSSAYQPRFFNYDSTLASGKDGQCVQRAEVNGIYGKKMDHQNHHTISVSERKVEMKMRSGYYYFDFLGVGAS
T2 sequence (looked up) 2: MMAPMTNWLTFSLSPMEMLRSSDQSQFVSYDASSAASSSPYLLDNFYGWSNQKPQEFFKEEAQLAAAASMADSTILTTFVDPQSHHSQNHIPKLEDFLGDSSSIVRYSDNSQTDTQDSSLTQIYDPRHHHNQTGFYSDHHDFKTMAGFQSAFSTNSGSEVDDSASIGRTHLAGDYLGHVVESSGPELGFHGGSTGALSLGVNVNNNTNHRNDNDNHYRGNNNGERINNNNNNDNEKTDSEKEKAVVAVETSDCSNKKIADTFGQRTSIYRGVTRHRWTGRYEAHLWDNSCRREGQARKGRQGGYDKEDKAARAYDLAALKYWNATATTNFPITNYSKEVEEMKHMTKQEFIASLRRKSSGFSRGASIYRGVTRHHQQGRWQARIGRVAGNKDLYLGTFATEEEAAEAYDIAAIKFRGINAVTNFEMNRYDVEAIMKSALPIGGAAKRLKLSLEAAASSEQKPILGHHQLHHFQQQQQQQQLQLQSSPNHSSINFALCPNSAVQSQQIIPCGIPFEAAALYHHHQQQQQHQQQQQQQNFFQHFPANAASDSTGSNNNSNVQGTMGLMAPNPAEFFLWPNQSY

T3: BRAVO-mV (BRASSINOSTEROIDS AT VASCULAR AND ORGANIZING CENTRE fused to mVenus) (Arabidopsis thaliana, UniProt Q6R053 1-323)
T3 sequence (looked up): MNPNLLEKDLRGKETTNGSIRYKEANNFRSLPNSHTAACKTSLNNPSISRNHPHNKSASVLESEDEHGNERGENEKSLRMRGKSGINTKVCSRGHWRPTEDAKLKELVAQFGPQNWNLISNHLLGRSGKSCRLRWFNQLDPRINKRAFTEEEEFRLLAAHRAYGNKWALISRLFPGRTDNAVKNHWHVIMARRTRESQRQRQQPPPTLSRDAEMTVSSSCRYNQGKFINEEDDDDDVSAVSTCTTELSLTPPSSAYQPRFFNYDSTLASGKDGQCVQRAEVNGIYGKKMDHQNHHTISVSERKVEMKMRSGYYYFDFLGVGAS

T4: TPL-mV (TOPLESS fused to mVenus) (Arabidopsis thaliana, UniProt Q94AI7 1-1131)
T4 sequence (looked up): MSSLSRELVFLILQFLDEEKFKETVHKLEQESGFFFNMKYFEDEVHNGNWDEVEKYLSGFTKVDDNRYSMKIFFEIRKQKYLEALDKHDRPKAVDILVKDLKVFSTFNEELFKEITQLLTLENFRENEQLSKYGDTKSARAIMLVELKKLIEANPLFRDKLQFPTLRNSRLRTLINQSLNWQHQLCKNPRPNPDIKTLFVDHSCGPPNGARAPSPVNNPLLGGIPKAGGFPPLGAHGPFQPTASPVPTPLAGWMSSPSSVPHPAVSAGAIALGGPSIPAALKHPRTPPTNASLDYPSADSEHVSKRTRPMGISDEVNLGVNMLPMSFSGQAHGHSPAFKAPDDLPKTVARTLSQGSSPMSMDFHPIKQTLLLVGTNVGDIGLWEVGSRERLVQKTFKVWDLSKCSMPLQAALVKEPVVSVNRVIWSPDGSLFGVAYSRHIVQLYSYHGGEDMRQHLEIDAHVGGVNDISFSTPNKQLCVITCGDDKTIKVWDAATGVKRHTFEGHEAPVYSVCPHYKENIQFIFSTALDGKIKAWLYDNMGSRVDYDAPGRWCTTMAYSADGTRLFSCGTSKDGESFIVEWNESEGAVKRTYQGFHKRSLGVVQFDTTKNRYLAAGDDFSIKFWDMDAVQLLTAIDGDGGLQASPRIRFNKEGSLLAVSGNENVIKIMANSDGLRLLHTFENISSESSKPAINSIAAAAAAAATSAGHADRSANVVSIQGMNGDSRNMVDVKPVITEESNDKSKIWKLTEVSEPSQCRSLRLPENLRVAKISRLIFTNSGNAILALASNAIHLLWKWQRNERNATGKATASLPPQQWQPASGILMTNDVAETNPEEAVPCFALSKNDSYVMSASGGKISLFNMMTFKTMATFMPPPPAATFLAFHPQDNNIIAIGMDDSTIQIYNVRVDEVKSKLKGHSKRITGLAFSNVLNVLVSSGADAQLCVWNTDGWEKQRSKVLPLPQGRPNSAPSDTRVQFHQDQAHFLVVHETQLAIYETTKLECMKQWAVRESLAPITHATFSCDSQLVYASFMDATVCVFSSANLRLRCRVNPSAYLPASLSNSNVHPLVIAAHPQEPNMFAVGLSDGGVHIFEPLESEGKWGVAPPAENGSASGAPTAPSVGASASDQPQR


Tests used:
[1] = molecular target: WOX5-mV(N)/PLT3-mV(C) heterodimer (split mVenus donor) (Arabidopsis thaliana) (UniProt Q8H1D2); test: split reporter
[2] = molecular target: BRAVO-mV (BRASSINOSTEROIDS AT VASCULAR AND ORGANIZING CENTRE fused to mVenus) (Arabidopsis thaliana) (UniProt Q6R053); test: FRET or BRET
[3] = molecular target: T1, WOX5-mV(N)/PLT3-mV(C) heterodimer …; test: split reporter
[4] = molecular target: T2, BRAVO-mV(N)/PLT3-mV(C) heterodimer …; test: split reporter
[5] = molecular target: T3, BRAVO-mV (BRASSINOSTEROIDS AT VASCULAR …); test: FRET or BRET
[6] = molecular target: BES1D-mV (BES1D fused to mVenus) (Arabidopsis thaliana) (UniProt Q9LN63); test: FRET or BRET
[7] = molecular target: T4, TPL-mV (TOPLESS fused to mVenus); test: FRET or BRET

BES1D-mCh (BRI1-EMS-SUPPRESSOR 1, BES1D form, fused to mCherry), sequence (Q9LN63 whole entry, the tested form may be a part): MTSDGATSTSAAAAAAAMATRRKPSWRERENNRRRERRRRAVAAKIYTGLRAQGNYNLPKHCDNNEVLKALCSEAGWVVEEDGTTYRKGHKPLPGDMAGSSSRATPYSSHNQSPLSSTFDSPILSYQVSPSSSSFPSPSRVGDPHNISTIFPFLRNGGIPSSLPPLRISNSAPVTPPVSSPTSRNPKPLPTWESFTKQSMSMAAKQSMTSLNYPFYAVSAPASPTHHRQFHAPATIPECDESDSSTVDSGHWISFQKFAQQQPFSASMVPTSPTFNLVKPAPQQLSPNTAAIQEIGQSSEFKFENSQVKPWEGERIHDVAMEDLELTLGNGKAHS
BES1D-mV (BES1D fused to mVenus) (Arabidopsis thaliana), sequence (Q9LN63 whole entry, the tested form may be a part): as above

Row | Molecule | binding [%] (FRET-FLIM) [2] | binding [%] (BiFC-FRET) [3] | binding [%] (BiFC-FRET) [4] | binding [%] (FRET-FLIM) [5] | other results
1 | BES1D-mCh (BRI1-EMS-SUPPRESSOR 1, BES1D form, fused to mCherry) (from UniProt Q9LN63 1-335) (natural protein) | 27.4% | – | – | – | binding [%] (BiFC-FRET) [1]: 18.7%
2 | PLT3ΔPrD-mCh (PLT3 with its prion-like domains deleted, fused to mCherry) (from UniProt Q9ZNS0 1-508) (natural protein) | 11.7% | – | – | – | –
3 | TPL-mCh (TOPLESS fused to mCherry) (natural protein, Arabidopsis thaliana, UniProt Q94AI7 1-1131, looked up) MSSLSRELVFLILQFLDEEKFKETVHKLEQESGFFFNMKYFEDEVHNGNWDEVEKYLSGFTKVDDNRYSMKIFFEIRKQKYLEALDKHDRPKAVDILVKDLKVFSTFNEELFKEITQLLTLENFRENEQLSKYGDTKSARAIMLVELKKLIEANPLFRDKLQFPTLRNSRLRTLINQSLNWQHQLCKNPRPNPDIKTLFVDHSCGPPNGARAPSPVNNPLLGGIPKAGGFPPLGAHGPFQPTASPVPTPLAGWMSSPSSVPHPAVSAGAIALGGPSIPAALKHPRTPPTNASLDYPSADSEHVSKRTRPMGISDEVNLGVNMLPMSFSGQAHGHSPAFKAPDDLPKTVARTLSQGSSPMSMDFHPIKQTLLLVGTNVGDIGLWEVGSRERLVQKTFKVWDLSKCSMPLQAALVKEPVVSVNRVIWSPDGSLFGVAYSRHIVQLYSYHGGEDMRQHLEIDAHVGGVNDISFSTPNKQLCVITCGDDKTIKVWDAATGVKRHTFEGHEAPVYSVCPHYKENIQFIFSTALDGKIKAWLYDNMGSRVDYDAPGRWCTTMAYSADGTRLFSCGTSKDGESFIVEWNESEGAVKRTYQGFHKRSLGVVQFDTTKNRYLAAGDDFSIKFWDMDAVQLLTAIDGDGGLQASPRIRFNKEGSLLAVSGNENVIKIMANSDGLRLLHTFENISSESSKPAINSIAAAAAAAATSAGHADRSANVVSIQGMNGDSRNMVDVKPVITEESNDKSKIWKLTEVSEPSQCRSLRLPENLRVAKISRLIFTNSGNAILALASNAIHLLWKWQRNERNATGKATASLPPQQWQPASGILMTNDVAETNPEEAVPCFALSKNDSYVMSASGGKISLFNMMTFKTMATFMPPPPAATFLAFHPQDNNIIAIGMDDSTIQIYNVRVDEVKSKLKGHSKRITGLAFSNVLNVLVSSGADAQLCVWNTDGWEKQRSKVLPLPQGRPNSAPSDTRVQFHQDQAHFLVVHETQLAIYETTKLECMKQWAVRESLAPITHATFSCDSQLVYASFMDATVCVFSSANLRLRCRVNPSAYLPASLSNSNVHPLVIAAHPQEPNMFAVGLSDGGVHIFEPLESEGKWGVAPPAENGSASGAPTAPSVGASASDQPQR | – | 23.3 ± 8.3% | 21.1 ± 8.3% | 26.7 ± 9.8% | –
4 | BRAVO-mCh (BRAVO fused to mCherry) (natural protein, Arabidopsis thaliana, UniProt Q6R053 1-323, looked up) MNPNLLEKDLRGKETTNGSIRYKEANNFRSLPNSHTAACKTSLNNPSISRNHPHNKSASVLESEDEHGNERGENEKSLRMRGKSGINTKVCSRGHWRPTEDAKLKELVAQFGPQNWNLISNHLLGRSGKSCRLRWFNQLDPRINKRAFTEEEEFRLLAAHRAYGNKWALISRLFPGRTDNAVKNHWHVIMARRTRESQRQRQQPPPTLSRDAEMTVSSSCRYNQGKFINEEDDDDDVSAVSTCTTELSLTPPSSAYQPRFFNYDSTLASGKDGQCVQRAEVNGIYGKKMDHQNHHTISVSERKVEMKMRSGYYYFDFLGVGAS | – | 36.3 ± 10.7% | – | – | –
5 | WOX5-mCh (WUSCHEL-RELATED HOMEOBOX 5 fused to mCherry) (natural protein, Arabidopsis thaliana, UniProt Q8H1D2 1-182, looked up) MSFSVKGRSLRGNNNGGTGTKCGRWNPTVEQLKILTDLFRAGLRTPTTDQIQKISTELSFYGKIESKNVFYWFQNHKARERQKRRKISIDFDHHHHQPSTRDVFEISEEDCQEEEKVIETLQLFPVNSFEDSNSKVDKMRARGNNQYREYIRETTTTSFSPYSSCGAEMEHPPPLDLRLSFL | – | – | 29.8 ± 10.6% | 22.4 ± 14.1% | –
6 | PLT3-mCh (PLETHORA 3 fused to mCherry) (natural protein, Arabidopsis thaliana, UniProt Q52QU2 1-581, looked up) MMAPMTNWLTFSLSPMEMLRSSDQSQFVSYDASSAASSSPYLLDNFYGWSNQKPQEFFKEEAQLAAAASMADSTILTTFVDPQSHHSQNHIPKLEDFLGDSSSIVRYSDNSQTDTQDSSLTQIYDPRHHHNQTGFYSDHHDFKTMAGFQSAFSTNSGSEVDDSASIGRTHLAGDYLGHVVESSGPELGFHGGSTGALSLGVNVNNNTNHRNDNDNHYRGNNNGERINNNNNNDNEKTDSEKEKAVVAVETSDCSNKKIADTFGQRTSIYRGVTRHRWTGRYEAHLWDNSCRREGQARKGRQGGYDKEDKAARAYDLAALKYWNATATTNFPITNYSKEVEEMKHMTKQEFIASLRRKSSGFSRGASIYRGVTRHHQQGRWQARIGRVAGNKDLYLGTFATEEEAAEAYDIAAIKFRGINAVTNFEMNRYDVEAIMKSALPIGGAAKRLKLSLEAAASSEQKPILGHHQLHHFQQQQQQQQLQLQSSPNHSSINFALCPNSAVQSQQIIPCGIPFEAAALYHHHQQQQQHQQQQQQQNFFQHFPANAASDSTGSNNNSNVQGTMGLMAPNPAEFFLWPNQSY | – | – | – | – | binding [%] (FRET-FLIM) [6]: 16.9%; binding [%] (FRET-FLIM) [7]: 13.5 ± 4.3%
